Measured values reported in PMC7749166 (Communications Biology, 2020).

Tested on: C5aR extracellular side
Assay: AFM affinity imaging with C5a tip: specificity and receptor height
Assay type: binding, human
Settings: free C5a in solution
Protocol: The reconstituted C5aR sample solution (either wt-C5aR or mutants) was 20-fold diluted in fusion buffer solution (20 mM HEPES, 300 mM NaCl, and 25 mM MgCl2) and adsorbed on freshly cleaved mica for 15 min. After rinsing with imaging buffer (20 mM HEPES and 300 mM NaCl) the sample was transferred to the AFM.
Rectangular Si3N4 AFM cantilevers with silicon tips (BioLever mini, Bruker) were first cleaned with chloroform for 10 min, rinsed with ethanol, N2 dried, and then cleaned for 15 min in an ultraviolet radiation and ozone cleaner (UV-O, Jetlight, CA, USA). For the aminofunctionalization, the cantilevers were immersed in an ethanolamine solution (3.3 g ethanolamine in 6.6 ml DMSO) overnight and then rinsed in DMSO (3 × 1 min) and ethanol (3 × 1 min), followed by N2 drying. This was followed by the N-hydroxysuccinimide (NHS)-PEG27-acetal linker attachment. […]
In FD-based AFM measurements, the AFM cantilever is oscillated in a sinusoidal manner well below its resonance frequency, while the sample surface is contoured pixel-by-pixel. For each approach–retraction cycle of the oscillating cantilever, a force–distance curve is recorded. […] Adhesion maps were recorded using a scan rate of 0.2 Hz and 256 × 256 pixels. […]
Several control experiments were designed to ensure that the measured interactions were indeed specific and the functionalization of the AFM tip successful. […]

B1: C5a: C5a, a large 74-amino acid glycoprotein; endogenous ligand of C5aR (His6-tag at N-terminal end for AFM tips) (protein)
chain: TLQKKIEEIAAKYKHSVVKKCCYDGACVNNDETCEQRAARISLGPRCIKAFTECCVVASQLRANISHKDMQLGR
modifications: left off: His6, N-terminal, kept
binding probability of C5a tip after blocking with free C5a: significantly reduces the binding probability
